Results on 13 molecules are retold here after patent US20230279089A1 (GlaxoSmithKline, published 2023).

The term Kd denotes the free concentration of one partner at which half of the binding sites on the other are occupied at equilibrium, for simple one-to-one binding. A higher Kd goes with weaker binding.

Where a chain is given by its changes, count along the chain named.

The chains are these.
T1: Human BMP1 CD+CUB1 truncated antigen (human, UniProt P13497 121-434, limits assumed)
T1 construct: domain: CD+CUB1
T1 sequence (looked up): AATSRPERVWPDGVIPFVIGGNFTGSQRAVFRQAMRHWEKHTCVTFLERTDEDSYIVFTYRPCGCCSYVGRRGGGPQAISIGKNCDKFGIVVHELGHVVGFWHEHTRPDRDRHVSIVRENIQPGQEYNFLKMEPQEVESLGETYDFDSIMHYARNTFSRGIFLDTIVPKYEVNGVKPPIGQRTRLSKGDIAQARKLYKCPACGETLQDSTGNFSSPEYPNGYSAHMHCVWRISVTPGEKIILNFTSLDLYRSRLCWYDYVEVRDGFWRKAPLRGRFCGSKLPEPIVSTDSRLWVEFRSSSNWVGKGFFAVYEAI

T2: Human TLL1 (human, UniProt O43897 148-1013, limits assumed)
T2 sequence (looked up): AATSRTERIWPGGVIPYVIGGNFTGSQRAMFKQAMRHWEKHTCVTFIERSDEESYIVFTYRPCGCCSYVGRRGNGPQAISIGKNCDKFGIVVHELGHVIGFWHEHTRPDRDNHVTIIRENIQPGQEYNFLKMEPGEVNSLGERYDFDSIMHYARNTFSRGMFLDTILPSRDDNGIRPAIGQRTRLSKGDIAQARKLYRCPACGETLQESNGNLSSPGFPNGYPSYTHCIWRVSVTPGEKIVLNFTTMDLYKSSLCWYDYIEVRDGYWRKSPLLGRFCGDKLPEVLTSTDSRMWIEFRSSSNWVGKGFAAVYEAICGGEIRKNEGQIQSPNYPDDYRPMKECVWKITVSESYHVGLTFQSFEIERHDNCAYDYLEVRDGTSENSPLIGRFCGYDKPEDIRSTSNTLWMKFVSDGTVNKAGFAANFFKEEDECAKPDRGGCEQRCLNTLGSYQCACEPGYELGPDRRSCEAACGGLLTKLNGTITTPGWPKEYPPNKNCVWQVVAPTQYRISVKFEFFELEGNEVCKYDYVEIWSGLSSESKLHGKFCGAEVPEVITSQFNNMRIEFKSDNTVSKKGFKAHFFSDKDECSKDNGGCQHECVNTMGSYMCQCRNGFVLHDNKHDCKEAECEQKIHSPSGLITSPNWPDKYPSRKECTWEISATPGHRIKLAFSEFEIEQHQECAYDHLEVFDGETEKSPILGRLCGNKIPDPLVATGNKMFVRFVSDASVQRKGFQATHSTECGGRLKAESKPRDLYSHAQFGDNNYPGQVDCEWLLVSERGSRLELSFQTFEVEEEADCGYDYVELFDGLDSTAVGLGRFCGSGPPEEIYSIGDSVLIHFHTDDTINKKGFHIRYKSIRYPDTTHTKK

T3: Human BMP1-1 (human, UniProt P13497-2 121-730, limits assumed)
T3 sequence (looked up): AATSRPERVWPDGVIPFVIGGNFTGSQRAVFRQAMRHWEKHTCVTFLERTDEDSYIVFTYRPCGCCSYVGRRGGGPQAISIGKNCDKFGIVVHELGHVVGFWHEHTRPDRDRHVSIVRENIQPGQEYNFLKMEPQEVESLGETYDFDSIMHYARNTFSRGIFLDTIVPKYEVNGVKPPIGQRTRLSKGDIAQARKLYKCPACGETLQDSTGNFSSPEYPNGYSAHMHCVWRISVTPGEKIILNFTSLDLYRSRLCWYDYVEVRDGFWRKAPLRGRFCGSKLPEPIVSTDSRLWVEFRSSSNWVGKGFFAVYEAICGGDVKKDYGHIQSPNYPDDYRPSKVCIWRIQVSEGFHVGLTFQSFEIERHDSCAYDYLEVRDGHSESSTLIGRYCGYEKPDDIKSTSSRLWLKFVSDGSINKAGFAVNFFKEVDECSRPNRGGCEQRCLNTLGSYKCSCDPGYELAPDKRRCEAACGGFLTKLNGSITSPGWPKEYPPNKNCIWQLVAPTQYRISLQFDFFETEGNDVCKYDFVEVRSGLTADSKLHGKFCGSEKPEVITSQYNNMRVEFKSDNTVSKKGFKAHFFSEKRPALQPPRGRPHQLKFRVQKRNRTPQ

B1: 13Y039-4B06-4324 (antibody, human IgG1, kappa, V domains shown)
VH: QVQLVQSGAEVKKPGASVKVSCKASGYTFRGYYMSWVRQAPGQGLEWMGWINPMSGETNYAQKFQGRVTMTRDTSISTAYMELSRLRSDDTAVYYCARDTGELDGMNWYFDLWGRGTLVTVSS
VL: EIVLTQSPATLSLSPGERATLSCRASQSVSSYLAWYQQKPGQAPRLLIYDASNRATGIPARFSGSGSGTDFTLTISSLEPEDFAVYYCQQSDSWPPTFGGGTKVEIKR
notes: Fully human IgG1 LAGA, kappa; HEK expressed
B2: 13Y039-4B06-4328 (antibody, human IgG1, kappa, V domains shown)
VH: B1 VH with R30H, S35N, M54L
VL: B1 VL
notes: as for B1
B3: 13Y039-4B06-4351 (antibody, human IgG1, kappa, V domains shown)
VH: B1 VH with R30S, M54N, N59F
VL: B1 VL
notes: as for B1
B4: 13Y039-4B06-4325 (antibody, human IgG1, kappa, V domains shown)
VH: B1 VH with R30W, M54Q
VL: B1 VL
notes: as for B1
B5: 13Y039-4B06-4364 (antibody, human IgG1, kappa, V domains shown)
VH: B1 VH with M54N, N59I
VL: B1 VL
notes: as for B1
B6: 13Y039-4B06-4373 (antibody, human IgG1, kappa, V domains shown)
VH: B1 VH with G31S, S35N, W50I, M54S, N59S, I76T, A79V, R85S, D89E
VL: B1 VL
notes: as for B1
B7: 13Y039-4B06-4376 (antibody, human IgG1, kappa, V domains shown)
VH: B1 VH with R30M, S35N, M54S
VL: B1 VL
notes: as for B1
B8: 13Y039-4B06-4348 (antibody, human IgG1, kappa, V domains shown)
VH: B1 VH with R30G, M54N, N59Y
VL: B1 VL
notes: as for B1
B9: 13Y039-4B06-4327 (antibody, human IgG1, kappa, V domains shown)
VH: B1 VH with R30P, S35T, W50N, M54N, E57W
VL: B1 VL
notes: as for B1
B10: 13Y039-127G03-2890 (antibody, human IgG1, kappa, V domains shown)
VH: QVQLVQSGAEVKKPGSSVKVSCKASGGTFSSYAISWVRQAPGQGLEWMGGIIPVFGSAYYAQKFQGRVTITADESTSTAYMELSSLRSEDTAVYYCAGEGRAYYGSESYDDSDYMDVWGKGTTVTVSS
VL: DIQMTQSPSSLSASVGDRVTITCQASQDISNYLNWYQQKPGKAPKLLIYDASNLETGVPSRFSGSGSGTDFTFTISSLQPEDIATYYCQQADIFPLTFGGGTKVEIKR
notes: as for B1
B11: 13Y039-152B02-2940 (antibody, human IgG1, kappa, V domains shown)
VH: QVQLVQSGAEVKKPGSSVKVSCKASGGTFSSDAISWVRQAPGQGLEWMGGIITNFGTATYAQKFQGRVTITADESTSTAYMELSSLRSEDTAVYYCARDVGVQLVYHGAFDIWGQGTMVTVSS
VL: B10 VL with E55A, A91D, I93Y, F94L, L96I
notes: as for B1
B12: 13Y039-152B02-2948 (antibody, human IgG1, kappa, V domains shown)
VH: B11 VH with S31D, D32F, T53P, N54I, F55Y, T59S, Q65L
VL: B10 VL with E55A, A91D, I93Y, F94L, L96I
notes: as for B1
B13: 13Y039-152B02-2935 (antibody, human IgG1, kappa, V domains shown)
VH: B11 VH with S31E, D32S, T53P, N54T, G56D, A58T, T59N
VL: B10 VL with E55A, A91D, I93Y, F94L, L96I
notes: as for B1

One assay addresses T1, Human BMP1 CD+CUB1 truncated antigen. The experiment in a line: SPR, mAb captured on protein A, HBS-EP. On the procedure:
The 16 lead panel antibodies expressed in HEK cells were evaluated for binding to a truncated version of human BMP containing the catalytic domain and truncated domain (Human BMP1 CD+CUB1 truncated antigen) by SPR using BIACORE T200. HBS-EP+ buffer was used and the experiment run at 25° C. Protein A was immobilised to a CM5 sensor chip via amine coupling. The lead panel antibodies were captured onto protein A surface. Human BMP1 CD+CUB1 was then passed over the captured antibodies at various concentrations.
For B1, the Kd is 3.9 nM.

In the case of B2, the Kd turned out to be 2.8 nM.

In turn, B3 showed a Kd of 1.9 nM.

Molecule B4 registered a Kd of 2.8 nM.

Regarding B5, the Kd stood at 2.4 nM.

As for B6, the affinity, expressed as Kd, was 3.3 nM.

Take B7: the Kd came to 3.7 nM.

B8: the affinity, expressed as Kd, was 1.5 nM.

B9 displayed a Kd of 1.5 nM.

In turn, B10 came in with a Kd of 0.3 nM.

As to B11, binding was put at a Kd of 1.9 nM.

Take B12: the Kd stood at 1.4 nM.

Turning to B13, the affinity, expressed as Kd, was 0.8 nM.

In a further assay the target is T2, Human TLL1. Nature of the assay: cell-based or functional assay.
Turning to B1, the “IC50, FRET enzyme activity, 250 pM biotinylated huTLL-1” value (from here on “IC50 … 250 pM biotinylated huTLL-1”) came out at 0.03 nM.

Regarding B2, the “IC50 … 250 pM biotinylated huTLL-1” value is 0.04 nM.

As to B3, the “IC50 … 250 pM biotinylated huTLL-1” value stood at 0.05 nM.

For B4, the “IC50 … 250 pM biotinylated huTLL-1” value was determined as 0.02 nM.

For B5, the “IC50 … 250 pM biotinylated huTLL-1” value is 0.06 nM.

With B6, the “IC50 … 250 pM biotinylated huTLL-1” value stood at 0.04 nM.

As for B7, the “IC50 … 250 pM biotinylated huTLL-1” value worked out at 0.07 nM.

As to B8, the “IC50 … 250 pM biotinylated huTLL-1” value was found to be 0.04 nM.

In the case of B9, the “IC50 … 250 pM biotinylated huTLL-1” value worked out at 0.01 nM.

As for B10, the “IC50 … 250 pM biotinylated huTLL-1” value came out at 18.2 nM.

For B11, the “IC50 … 250 pM biotinylated huTLL-1” value turned out to be 0.05 nM.

For the molecule B12, the “IC50 … 250 pM biotinylated huTLL-1” value amounted to 0.08 nM.

Regarding B13, the “IC50 … 250 pM biotinylated huTLL-1” value is 0.09 nM.

A further assay deals with T3, Human BMP1-1. Nature of the assay: cell-based or functional assay.
B1: the “IC50, FRET enzyme activity, 62.5 pM huBMP1” value (“IC50 … 62.5 pM huBMP1” for short) stood at 0.02 nM.

B2: the “IC50 … 62.5 pM huBMP1” value worked out at 0.03 nM.

B3: the “IC50 … 62.5 pM huBMP1” value came to 0.03 nM.

With B4, the “IC50 … 62.5 pM huBMP1” value turned out to be 0.03 nM.

As to B5, the “IC50 … 62.5 pM huBMP1” value stood at 0.02 nM.

For B6, the “IC50 … 62.5 pM huBMP1” value turned out to be 0.09 nM.

As for B7, the “IC50 … 62.5 pM huBMP1” value was 0.05 nM.

On to B8, for which the “IC50 … 62.5 pM huBMP1” value was determined as 0.02 nM.

Take B9: the “IC50 … 62.5 pM huBMP1” value worked out at 0.01 nM.

As to B10, the “IC50 … 62.5 pM huBMP1” value worked out at 0.4 nM.

For B11, the “IC50 … 62.5 pM huBMP1” value amounted to 0.13 nM.

On to B12, for which the “IC50 … 62.5 pM huBMP1” value worked out at 0.31 nM.

For the molecule B13, the “IC50 … 62.5 pM huBMP1” value was found to be 0.25 nM.
